The target in this assay is prefusion-stabilized NiV F (NiVop08) (Nipah virus, Malaysian strain, stabilised).

B1: 201805_NiV_PL3_D4 (antibody, V domains shown)
VH: EVQLQQSGPELVKPGASVKMSCKASGYTFTSNVMHWVKQKPGQGLEWIGYINPYNDGTRYNEKFKGKATLTSDKSSSTAYMELSSLTSEDSAVYYCARRFYRGAMDYWGQGTSVTVSA
VL: NIVLHQSPASLAVSLGQRATISCRASESVDTYDNSFMHWYQQKPGQPPKLLIYLASKLESGVPARFSGSGSRTDFTLTIDPVEADDAATYYCQQNYEDPYTFGGGTKLEIK
Regarding B1, the binding result is listed as “binds”.

(Values after paper PMC10021056 (Nature Communications, 2023).)
